Test results: patent publication US20220289814A1

Experiments:
Test in all cases: cell-based or functional assay
[1] = target: M663 ITAM-modified BCMA CAR (ISD: Linker 6-CD3ζ ITAM1-Linker 1-CD3ζ ITAM2-Linker 7-CD3ζ ITAM3-Linker 2) (UniProt P01732)
[2] = target: M665 ITAM-modified BCMA CAR (ISD: Linker 6-CD3ζ ITAM1-Linker 1-CD3ζ ITAM1-Linker 7-CD3ζ ITAM1-Linker 2) (UniProt P01732)
[3] = target: M666 ITAM-modified BCMA CAR (ISD: Linker 6-CD3ζ ITAM2-Linker 1-CD3ζ ITAM2-Linker 7-CD3ζ ITAM2-Linker 2) (UniProt P01732)
M666 ITAM-modified BCMA CAR (ISD: Linker 6-CD3ζ ITAM2-Linker 1-CD3ζ ITAM2-Linker 7-CD3ζ ITAM2-Linker 2), sequence (P01732 whole entry): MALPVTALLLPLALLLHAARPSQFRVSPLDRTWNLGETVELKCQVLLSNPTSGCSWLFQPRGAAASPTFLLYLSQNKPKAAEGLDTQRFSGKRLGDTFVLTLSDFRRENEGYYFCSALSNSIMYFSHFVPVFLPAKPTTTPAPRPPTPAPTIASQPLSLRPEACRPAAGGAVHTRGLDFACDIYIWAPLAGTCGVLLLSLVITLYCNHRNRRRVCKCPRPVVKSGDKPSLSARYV

M663 ITAM-modified BCMA CAR (ISD: Linker 6-CD3ζ ITAM1-Linker 1-CD3ζ ITAM2-Linker 7-CD3ζ ITAM3-Linker 2), sequence (P01732 whole entry): as above
M665 ITAM-modified BCMA CAR (ISD: Linker 6-CD3ζ ITAM1-Linker 1-CD3ζ ITAM1-Linker 7-CD3ζ ITAM1-Linker 2), sequence (P01732 whole entry): as above

## wildtype SIV Nef
[1]
  Relative ISD-modified CAR expression (CAR positive rate, FACS with FITC-labeled human BCMA, normalized to empty vector control), day 3 after Nef transduction: 46.7%
[2]
  Relative ISD-modified CAR expression (CAR positive rate, FACS with FITC-labeled human BCMA, normalized to empty vector control), day 3 after Nef transduction: 82.3%
[3]
  Relative ISD-modified CAR expression (CAR positive rate, FACS with FITC-labeled human BCMA, normalized to empty vector control), day 3 after Nef transduction: 57%
